Test results reported in paper PMC5463365, “Assembly and use of high-density recombinant peptide chips for large-scale ligand screening is a practical alternative to synthetic peptide libraries” (BMC Genomics, 2017).
Where no end group is shown, it is not given here.

B1: 5'FAM-labeled Strep-tag II peptide (peptide)
peptide: {FAM}-WSHPQFEK
notes: Strep-tag II; source: synthetic peptide
B2: 5'FAM-labeled B5 peptide (peptide)
peptide: {FAM}-VSHPQAPF
notes: B5; source: synthetic peptide
B3: 5'FAM-labeled Strep-tag I peptide (peptide)
peptide: {FAM}-AWRHPQFGG
notes: Strep-tag I; source: synthetic peptide (GenScript Inc.)

Key:
[1] = biological target: T1, Streptavidin on Streptavidin-coated biosensors (UniProt P22629 25-183); assay: BLI; BLItz system; Streptavidin-coated biosensors exposed to chemically synthesized 5'FAM peptides for 2 min in ES2 buffer; only a single analyte concentration tested; conditions: both partners purified
T1 construct: Streptavidin coated on disposable biosensors; also called Streptavidin biosensors; source: bought: Streptavidin-coated biosensors for ForteBio's BLItz system

[2] = biological target: T2, Recombinant Streptavidin, unconjugated (UniProt P22629 25-183); assay: fluorescence polarisation; 20 nM 5'FAM-labeled peptide with rising concentrations of Streptavidin/StrepTactin, triplicates; ES2 buffer (100 mM potassium phosphate pH 7.4, 100 μg/ml bovine γ globulin, 0.02% NaN3); at least 2 h at RT or o/n at 4 °C; conditions: both partners purified
T2 construct: Streptavidin, commercial recombinant protein; Used in the fluorescence polarisation assays; source: bought: recombinant, unconjugated format (Thermo Fisher Scientific, BioRad or Perkin Elmer, 'respectively')
T2 sequence (P22629 25-183): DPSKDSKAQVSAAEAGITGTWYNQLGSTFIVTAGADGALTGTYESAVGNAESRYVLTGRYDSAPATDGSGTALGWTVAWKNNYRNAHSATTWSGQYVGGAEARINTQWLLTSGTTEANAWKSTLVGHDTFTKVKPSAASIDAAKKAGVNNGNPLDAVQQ

T1 sequence (P22629 25-183): as above

| Binder | Kd [1] [µM] | Kd [2] [µM] |
| --- | --- | --- |
| B1 | 25.4 | 13.3 |
| B2 | 79.5 | – |
| B3 | – | 2.75 |
